Results on one substance are retold here after patent US20040091492A1.

The target of test [1] is HLA-A3 on Hmy2.C1R-A3 transfectant cells with the pn2a.A3 peptide (human).
In test [2] the target is HLA-A2 on Hmy2.C1R-A2 transfectant cells with the HIV gag 77-85 peptide (human), A*02:0.
In test [3] the target is HLA-A3 on Hmy2.C1R-A3 transfectant cells with the pn2a.A3 peptide (human). The source holds these as a separate data set.
The target of test [4] is HLA-A2 on Hmy2.C1R-A2 target cells pulsed with HTLV-1 TAX 11-19 peptide (human), A*02:0. Put plainly: cell-based or functional assay.
The target of test [5] is HLA-A1 on Hmy2.C1R-A1 transfectant cells with the OD 309 peptide (ornithine decarboxylase 309-317) (human). As to the kind of experiment: competition with 2.5 µM myc-hβ2m on Hmy2.C1R-A1 cells with OD 309 peptide, 9E10 flow cytometry. (In flow cytometry, cells or beads pass a laser one at a time.)
For test [6] the target is unchanged. Put plainly: HLA stabilization assay, acid-stripped Hmy2.C1R-A1 cells with OD 309 peptide and BB7.5 mAb, flow cytometry.

Consider “hβ2m S55V (human β2-microglobulin with valine at position 55 of the mature protein) (from UniProt P61769 21-119)”, for which the figures for the fold better stabilization than wild-type hβ2m in test [1] and in test [6] were 3 fold and 2 fold, respectively. Further, the fold better inhibition of myc-hβ2m binding than wild-type hβ2m in test [2], in test [3] and in test [5] was 2.5 fold each time. Moreover, the fold more effective than wild-type hβ2m at enhancing target cell lysis (CTL lysis assay) in test [4] was 4 fold.
